# Legend:
# [1] = tested on: HUVEC; test: HUVEC migration (chemotaxis chamber) assay; format: cell-based, human
# Procedure: FIG. 4. ApoM-bound S1P activates S1P1-mediated intracellular signaling pathways and affects migration of HUVEC. (A) Confocal microscopy of HEK293 cells stably expressing S1P1-GFP. Cells were serum starved, stimulated for 1 h with indicated ligands, fixed and imaged. ApoM^+HDL (equivalent to ˜100 nM S1P as determined by LC/MS/MS) or ApoM^−HDL was used at 100 μg/ml. Fatty acid free BSA and r-apoM were complexed with S1P and used at the final concentration of 100 nM (equimolar for both protein and lipid). Scale bar, 20 μm. […] Activation of p44/42, and Akt was examined by western blot analysis using phospho-specific antibodies. (C) HUVEC were serum starved and pre-treated with 1 μM VPC44116 for 30 min where indicated and subjected to migration assay with 10 μg/ml apoM^+HDL (10 nM S1P) or 10 μg/ml apoM^−HDL or 10 nM albumin-S1P. Data are mean±SD, n=3. * p<0.01. (D) Microscopy of HUVEC that were serum starved and stimulated with 100 μg/ml apoM^+HDL, apoM^−HDL, 100 nM albumin-S1P, r-apoM-S1P or 100 nM S1P-free r-apoM for 1 h. […] Scale bar, 20 μm. […]
# General Methods. […] Numerical differences were analyzed with two-tailed Student's t test.
# Migration Assays. […] The filter was scanned, and the color density of each well was quantified using ImageJ software. […]
# [2] = target: T1, S1P1 receptor (Homo sapiens, UniProt P21453); test: S1P1 internalization in HEK293 cells stably expressing S1P1-GFP; format: cell-based; conditions: stimulated 1 h; HDL 100 μg/ml; S1P complexes 100 nM
# T1 construct: expressed in transfected cells
# Procedure: (§1) FIG. 4. ApoM-bound S1P activates S1P1-mediated intracellular signaling pathways and affects migration of HUVEC. (A) Confocal microscopy of HEK293 cells stably expressing S1P1-GFP. Cells were serum starved, stimulated for 1 h with indicated ligands, fixed and imaged. ApoM^+HDL (equivalent to ˜100 nM S1P as determined by LC/MS/MS) or ApoM^−HDL was used at 100 μg/ml. Fatty acid free BSA and r-apoM were complexed with S1P and used at the final concentration of 100 nM (equimolar for both protein and lipid). Scale bar, 20 μm. […] Activation of p44/42, and Akt was examined by western blot analysis using phospho-specific antibodies. (C) HUVEC were serum starved and pre-treated with 1 μM VPC44116 for 30 min where indicated and subjected to migration assay with 10 μg/ml apoM^+HDL (10 nM S1P) or 10 μg/ml apoM^−HDL or 10 nM albumin-S1P. Data are mean±SD, n=3. * p<0.01. (D) Microscopy of HUVEC that were serum starved and stimulated with 100 μg/ml apoM^+HDL, apoM^−HDL, 100 nM albumin-S1P, r-apoM-S1P or 100 nM S1P-free r-apoM for 1 h. […] Scale bar, 20 μm. HUVEC were serum starved and stimulated for 5 min with 30 nM albumin-S1P, r-apoM-S1P, 10 μg/mL ApoM+ HDL, or 30 nM S1P-free r-apoM (E) or with increasing concentrations of albumin or r-apoM-S1P (F). […]
# General Methods. […] Numerical differences were analyzed with two-tailed Student's t test. […]
# [3] = tested on: HUVEC; test: adherens junction assembly assay (VE-cadherin immunostaining) in HUVEC; format: cell-based, human; conditions: HUVEC stimulated 1 h; HDL 100 μg/ml; S1P complexes or r-apoM 100 nM
# Procedure: as §1, with “(F). Activation of p44/42 and Akt was examined by Western blot analysis using phospho-specific antibodies.” for “(F).”
# [4] = tested on: VCAM-1; test: TNFα-induced cell surface VCAM-1 expression in HUVEC by flow cytometry; format: cell-based, human; conditions: for suppression of cytokine-induced VCAM-1 expression: human endothelial cells (FIG. 9)
# Procedure: FIG. 9. ApoM/S1P inhibition of endothelial cell VCAM-1 expression. Human umbilical vein endothelial cells (HUVEC) were treated with TNFα for 3 hr. Some cells were co-treated with recombinant (r)ApoM (100 nM) or rApoM/S1P complex (100 nM) or albumin/S1P complex (100 nM) for the same amount of time. The cells were then analyzed for the cell surface expression of Vascular cell adhesion molecule (VCAM)-1 by flow cytometry. Note that ApoM/S1P complex inhibited (˜40%) TNFα-induced VCAM-1 expression.
# Inflammation of vascular endothelial cells is a critical initiating event in atherosclerosis, which leads to heart attacks and strokes. Endothelial cell inflammation is induced by cytokines such as TNFα and IL-1β. When endothelial cells are exposed to such cytokines, an inflammatory program of gene expression is induced, resulting in the formation of adhesion molecules such as VCAM-1, which in turn is needed for the recruitment of monocytes into the blood vessel wall. […] Thus, ApoM/S1P complexes can be used to suppress vascular inflammation as a potential treatment for atherosclerosis.
# T1 sequence (P21453 whole entry): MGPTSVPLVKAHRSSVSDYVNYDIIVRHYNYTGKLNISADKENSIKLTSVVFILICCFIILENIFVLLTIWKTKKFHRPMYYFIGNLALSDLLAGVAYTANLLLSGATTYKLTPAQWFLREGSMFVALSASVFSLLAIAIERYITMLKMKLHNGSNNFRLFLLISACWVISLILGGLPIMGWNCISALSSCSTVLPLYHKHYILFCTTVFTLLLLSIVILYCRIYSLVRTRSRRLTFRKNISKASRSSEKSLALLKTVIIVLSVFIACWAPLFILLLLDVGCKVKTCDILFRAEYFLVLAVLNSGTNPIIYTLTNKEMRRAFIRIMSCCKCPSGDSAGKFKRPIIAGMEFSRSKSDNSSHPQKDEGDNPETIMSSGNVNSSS
Molecule,chemoattractant activity compared with albumin-bound S1P ([1]; increasing concentrations (FIG. 4G)),"chemotaxis of HUVEC toward chemoattractant ([1]; serum-starved HUVEC, 4 h at 37° C.)",internalization of GFP-S1P1 receptor [2],adherens junction and F-actin formation [3],"inhibition of TNFα-induced VCAM-1 expression ([4]; 100 nM, co-treated with TNFα for 3 hr)",suppression of cytokine-induced VCAM-1 expression [4]
"r-apoM-bound S1P: S1P complexed with equi-molar recombinant apoM (protein, UniProt O95445 1-188, looked up, complexed with S1P) Apolipoprotein M: MFHQIWAALLYFYGIILNSIYQCPEHSQLTTLGVDGKEFPEVHLGQWYFIAGAAPTKEELATFDPVDNIVFNMAAGSAPMQLHLRATIRMKDGLCVPRKWIYHLTEGSTDLRTEGRPDMKTELFSSSCPGGIMLNETGQGYQRFLLYNRSPHPPEKCVEEFKSLTSCLDSKAFLLTPRNQEACELSNN",slightly higher activity,worked as chemoattractants in a concentration-dependent manner,induced robust internalization,"well-spread, contained F-actin and formed adherens junctions",~40%,significant suppression
"r-apoM without S1P: recombinant apoM not complexed with S1P (protein, UniProt O95445 1-188, looked up) Apolipoprotein M: MFHQIWAALLYFYGIILNSIYQCPEHSQLTTLGVDGKEFPEVHLGQWYFIAGAAPTKEELATFDPVDNIVFNMAAGSAPMQLHLRATIRMKDGLCVPRKWIYHLTEGSTDLRTEGRPDMKTELFSSSCPGGIMLNETGQGYQRFLLYNRSPHPPEKCVEEFKSLTSCLDSKAFLLTPRNQEACELSNN",,,Neither apoM^−HDL nor r-apoM without S1P caused receptor internalization,not efficiently induced,,not seen

# Reference: US9592268B2, “Endothelium protective materials and methods of use” (CORNELL UNIVERSITY, priority 2011, dated 2017)
